Values of other authors in patent US6964771B1, “Method for stably incorporating substances within dry, foamed glass matrices” (Elan Drug Delivery Limited, priority 1995, dated 2005).

Details: as delivered, dosage of 300 μg

B1: Neupogen®: biopharmaceutical delivered at a dosage of 300 μg (protein, chains of the INN, looked up)
chain: MTPLGPASSLPQSFLLKCLEQVRKIQGDGAALQEKLCATYKLCHPEELVLLGHSLGIPWAPLSSCPSQALQLAGCLSQLHSGLFLYQGLLQALEGISPELGPTLDTLQLDVADFATTIWQQMEELGMAPALQPTQGAMPAFASAFQRRAGGVLVASHLQSFLEVSYRVLRHLAQP
specific activity: 1±0.6×10^8 U/mg
